What was measured:
[1] = target: NPR-A or NPR-B (mouse (endogenous in cardiomyocytes))
[2] = target: NPR-A or NPR-B (mouse (endogenous in cardiomyocytes)); remark: listed apart in the source

Substance “Brain Natriuretic Peptide, synthetic mouse BNP (1–45) peptide” has a pPLB/PLB ratio (Western blot) in adult CMs isolated from C57BL/6 hearts and stimulated in vitro with BNP for 2–3 h, against untreated cells [1] of 2.1 fold, a pPLB/PLB ratio (Western blot) in CMs isolated from the RZ of infarcted hearts after BNP injections, against saline (decreased) [2] of -32% and a pPLB/PLB ratio (Western blot) in CMs isolated from the border zone (BZ) of infarcted hearts after BNP injections, against saline [2] of 2.7 fold. The pPLB/PLB ratio (Western blot) in CMs isolated from unmanipulated adult hearts after BNP injections, against saline [2] was 1.5 fold and the pPLB/PLB ratio (Western blot) in CMs isolated from unmanipulated neonatal hearts after BNP injections, against saline [2] was 3.5 fold.

Source: publication PMC9818267, “Brain Natriuretic Peptide Protects Cardiomyocytes from Apoptosis and Stimulates Their Cell Cycle Re-Entry in Mouse Infarcted Hearts” (Cells, 2022)
